In publication PMC4130213:

How the values were obtained:
[1] = tested on: CovR (unphosphorylated) (Streptococcus pyogenes (M6 serotype, JRS4?)); test: DNase I footprinting; conditions: not given in the material (DNase I protection assay details absent)
[2] = tested on: CovR-P (phosphorylated CovR) (Streptococcus pyogenes (M6 serotype, JRS4?)); test: DNase I footprinting; conditions: not given in the material (DNase I protection assay details absent)

Pska wild type
binding signal [1]: 3 µM | binding signal [2]: 0.25 µM
